# Measured values published in US20250076311A1 (Chugai, published 2025).
# T1: cynomolgus monkey FcγRIIa1 extracellular domain, His-tagged (cynomolgus monkey)
# T1 construct: also called cyno FcgRIIa1
# T1 chain: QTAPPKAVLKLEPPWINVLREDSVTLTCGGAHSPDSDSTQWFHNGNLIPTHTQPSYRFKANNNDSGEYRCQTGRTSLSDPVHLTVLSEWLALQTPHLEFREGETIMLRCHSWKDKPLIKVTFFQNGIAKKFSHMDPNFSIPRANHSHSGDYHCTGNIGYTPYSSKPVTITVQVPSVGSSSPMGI
# T2: cynomolgus monkey FcγRIIa2 extracellular domain, His-tagged (cynomolgus monkey)
# T2 construct: also called cyno FcgRIIa2
# T2 chain: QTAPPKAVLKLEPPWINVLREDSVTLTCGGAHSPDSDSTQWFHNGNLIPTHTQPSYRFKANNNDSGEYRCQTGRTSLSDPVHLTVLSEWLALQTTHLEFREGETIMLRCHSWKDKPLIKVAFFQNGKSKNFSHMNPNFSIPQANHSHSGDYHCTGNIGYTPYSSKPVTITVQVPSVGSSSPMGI
# T3: cynomolgus monkey FcγRIIa3 extracellular domain, His-tagged (cynomolgus monkey)
# T3 construct: also called cyno FcgRIIa3
# T3 chain: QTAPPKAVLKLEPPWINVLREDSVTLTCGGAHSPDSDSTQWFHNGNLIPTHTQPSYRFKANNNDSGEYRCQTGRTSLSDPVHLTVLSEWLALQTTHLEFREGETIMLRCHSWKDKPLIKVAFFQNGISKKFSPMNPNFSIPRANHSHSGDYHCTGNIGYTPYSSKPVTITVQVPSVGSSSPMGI
# T4: cynomolgus monkey FcγRIIb extracellular domain, His-tagged (cynomolgus monkey)
# T4 construct: also called cyno FcgRIIb
# T4 chain: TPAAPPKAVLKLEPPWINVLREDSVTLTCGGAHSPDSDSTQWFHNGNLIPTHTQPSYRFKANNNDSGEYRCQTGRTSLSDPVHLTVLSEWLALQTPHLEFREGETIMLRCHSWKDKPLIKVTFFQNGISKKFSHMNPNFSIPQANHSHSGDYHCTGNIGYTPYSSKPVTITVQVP
# T5: cynomolgus monkey FcγRIIIaS extracellular domain, His-tagged (cynomolgus monkey, UniProt Q8SPW2 21-206 at identity 1.00))
# T5 construct: also called cyno FcgRIIIaS
# T5 chain: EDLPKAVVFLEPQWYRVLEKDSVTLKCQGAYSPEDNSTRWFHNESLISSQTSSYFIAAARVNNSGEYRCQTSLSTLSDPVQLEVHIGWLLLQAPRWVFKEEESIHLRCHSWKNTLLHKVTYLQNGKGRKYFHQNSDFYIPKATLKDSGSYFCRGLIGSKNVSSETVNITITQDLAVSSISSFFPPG
# T6: human FcγRIIaH extracellular domain, His-tagged (human, UniProt P12318 34-217)
# T6 construct: also called human FcgRIIaH; FcγRIIa type H
# T6 sequence: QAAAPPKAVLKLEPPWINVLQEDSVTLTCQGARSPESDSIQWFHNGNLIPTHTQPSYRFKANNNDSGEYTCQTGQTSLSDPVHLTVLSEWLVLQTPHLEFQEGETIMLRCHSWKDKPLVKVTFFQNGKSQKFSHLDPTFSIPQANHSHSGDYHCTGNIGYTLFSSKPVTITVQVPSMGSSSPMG
# T7: human FcγRIIaR extracellular domain, His-tagged (human, UniProt P12318 34-217)
# T7 construct: also called human FcgRIIaR; FcγRIIa type R
# T7 chain: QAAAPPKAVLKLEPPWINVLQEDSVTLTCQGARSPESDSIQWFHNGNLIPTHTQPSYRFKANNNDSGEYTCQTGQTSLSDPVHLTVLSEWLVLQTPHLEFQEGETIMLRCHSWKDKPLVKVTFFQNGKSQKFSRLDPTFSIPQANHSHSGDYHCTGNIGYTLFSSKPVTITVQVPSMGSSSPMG
# T8: human FcγRIIb extracellular domain, His-tagged (human, UniProt P31994 43-217)
# T8 construct: also called human FcgRIIb
# T8 sequence: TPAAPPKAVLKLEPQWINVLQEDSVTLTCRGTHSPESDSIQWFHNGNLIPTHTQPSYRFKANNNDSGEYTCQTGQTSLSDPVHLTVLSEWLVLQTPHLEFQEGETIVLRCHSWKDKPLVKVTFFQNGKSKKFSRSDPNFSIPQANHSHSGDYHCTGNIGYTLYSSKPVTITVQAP
# T9: Mouse latent myostatin (mouse, UniProt O08689 26-267; O08689 268-376, limits assumed)
# T9 sequence 1: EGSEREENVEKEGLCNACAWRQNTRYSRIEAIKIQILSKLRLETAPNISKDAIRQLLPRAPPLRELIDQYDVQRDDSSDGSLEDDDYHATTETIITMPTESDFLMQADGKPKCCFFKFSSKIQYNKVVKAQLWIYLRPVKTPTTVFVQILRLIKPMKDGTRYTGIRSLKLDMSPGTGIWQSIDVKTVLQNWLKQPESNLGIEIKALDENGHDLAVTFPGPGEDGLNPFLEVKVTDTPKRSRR
# T9 sequence 2: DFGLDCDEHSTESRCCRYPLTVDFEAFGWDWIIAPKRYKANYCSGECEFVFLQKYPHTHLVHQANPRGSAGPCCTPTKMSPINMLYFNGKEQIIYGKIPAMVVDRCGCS
# T10: human FcγRIIaH extracellular domain, His-tagged (human, UniProt P12318 34-217)
# T10 construct: also called human FcγRIIa (type H); FcgRIIaH
# T10 sequence: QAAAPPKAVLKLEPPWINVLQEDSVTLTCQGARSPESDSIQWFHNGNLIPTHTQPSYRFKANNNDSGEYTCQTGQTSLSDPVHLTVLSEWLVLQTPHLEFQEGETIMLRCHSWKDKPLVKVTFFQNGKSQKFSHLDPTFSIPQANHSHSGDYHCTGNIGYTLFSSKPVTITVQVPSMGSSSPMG
# T11: human FcγRIIb extracellular domain, His-tagged (human, UniProt P31994 43-217)
# T11 construct: also called human FcgRIIb; FcgRIIb (human)
# T11 sequence: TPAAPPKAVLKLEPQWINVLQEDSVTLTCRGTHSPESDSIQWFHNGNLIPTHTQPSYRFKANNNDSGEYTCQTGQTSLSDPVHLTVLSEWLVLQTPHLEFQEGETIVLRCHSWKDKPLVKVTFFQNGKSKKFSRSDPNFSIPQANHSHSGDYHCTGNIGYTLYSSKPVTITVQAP
# Experiments:
# [1] = biological target: T1, cynomolgus monkey FcγRIIa1 …; assay: SPR (Biacore), 25C, KD of SG1 / KD of variant
# [2] = biological target: T2, cynomolgus monkey FcγRIIa2 …; assay: SPR (Biacore), 25C, KD of SG1 / KD of variant
# [3] = biological target: T3, cynomolgus monkey FcγRIIa3 …; assay: SPR (Biacore), 25C, KD of SG1 / KD of variant
# [4] = biological target: T4, cynomolgus monkey FcγRIIb extracellular …; assay: SPR (Biacore), 25C, KD of SG1 / KD of variant
# [5] = biological target: T5, cynomolgus monkey FcγRIIIaS …; assay: SPR (Biacore), 25C, KD of SG1 / KD of variant
# [6] = biological target: T6, human FcγRIIaH extracellular domain, …; assay: SPR (Biacore), 25C, KD of SG1 / KD of variant
# [7] = biological target: T7, human FcγRIIaR extracellular domain, …; assay: SPR (Biacore), 25C, KD of SG1 / KD of variant
# [8] = biological target: T8, human FcγRIIb extracellular domain, …; assay: SPR (Biacore), 25C, KD of SG1 / KD of variant
# [9] = biological target: T12, human FcγRIIIaV extracellular domain, His-tagged (human, UniProt P08637 17-208); assay: SPR (Biacore), 25C, KD of SG1 / KD of variant
# T12 construct: also called human FcgRIIIaV
# T12 sequence (P08637 17-208 F176V): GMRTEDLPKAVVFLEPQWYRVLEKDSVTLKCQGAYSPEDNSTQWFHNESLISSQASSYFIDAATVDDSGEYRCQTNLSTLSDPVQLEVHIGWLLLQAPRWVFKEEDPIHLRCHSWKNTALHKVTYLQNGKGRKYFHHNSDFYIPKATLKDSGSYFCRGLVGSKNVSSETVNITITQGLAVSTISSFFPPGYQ
# [10] = biological target: T2, cynomolgus monkey FcγRIIa2 …; assay: SPR (Biacore), 25C, antibody captured, FcgR as analyte
# Protocol: (§1) The kinetic analysis of interactions between these antibodies and FcγR was carried out using BIACORE® T200 or BIACORE® 4000 (GE Healthcare). HBS-EP+ (GE Healthcare) was used as the running buffer, and the measurement temperature was set to 25° C. […] After the measurement, the antibody captured on the chip was washed off by allowing reaction with 10 mM glycine-HCl, pH1.5 and 25 mM NaOH so that the chip was regenerated and used repeatedly. The sensorgrams obtained as measurement results were analyzed by the 1:1 Langmuir binding model using the BIACORE® Evaluation Software to calculate the binding rate constant ka (L/mol/s) and dissociation rate constant kd (1/s), and the dissociation constant KD (mol/L) was calculated from these values. […] Regarding such interactions, KD values were calculated using the following 1:1 binding model described in BIACORE® T100 Software Handbook BR1006-48 Edition AE.
# [11] = biological target: T4, cynomolgus monkey FcγRIIb extracellular …; assay: as above
# Protocol: as §1
# [12] = biological target: T6, human FcγRIIaH extracellular domain, …; assay: as above
# Protocol: as §1
# [13] = biological target: T7, human FcγRIIaR extracellular domain, …; assay: as above
# Protocol: as §1
# [14] = biological target: T12, human FcγRIIIaV extracellular domain, …; assay: as above
# Protocol: as §1
# Mouse latent myostatin = biological target: T9, Mouse latent myostatin; assay: SPR (Biacore T200), 37C, pH 5.8, antibody captured on ProA/G
# Protocol: ProA/G (Pierce) was immobilized onto all flow cells of a CM4 chip using an amine coupling kit (GE Healthcare). All antibodies and analytes were prepared in ACES pH7.4 or pH5.8 buffer containing 20 mM ACES, 150 mM NaCl, 1.2 mM CaCl₂, 0.05% TWEEN® 20, 0.005% NaN3. […] The sensor surface was regenerated each cycle with 10 mM Glycine HCl pH1.5. Binding affinity was determined by processing and fitting the data to a 1:1 binding model using BIACORE® T200 Evaluation software, version 2.0 (GE Healthcare).
# [15] = biological target: T10, human FcγRIIaH extracellular domain, …; assay: SPR (BIACORE), antibody captured, FcγR analyte, 25 C; KD of SG1 divided by KD of variant
# [16] = biological target: T11, human FcγRIIb extracellular domain, …; assay: as above
# [17] = biological target: T13, human FcγRIIIaV extracellular domain, His-tagged (human, UniProt P08637 17-208); assay: as above
# T13 construct: also called human FcγRIIIa (V158); FcgRIIIaV
# T13 sequence (P08637 17-208 F176V): as above
binder,measurement,setting,value
"MS1032LO06-MY009 (antibody, human IgG1, kappa, SG1 with P238D (EU numbering); also called M103205H795-MY009/M103202L889-SK1) heavy: not shown light: DIVMTQSPATLSLSPGERATLSCTSSQSVYHANWLSWFQQKPGQPPKLLIYWASTLAYGVPSRFSGSGSGTDFTLTISSLQPEDAATYYCAGGYGGGRYAFGQGTKVEIKRTVAAPSVFIFPPSDEQLKSGTASVVCLLNNFYPREAKVQWKVDNALQSGNSQESVTEQDSKDSTYSLSSTLTLSKADYEKHKVYACEVTHQGLSSPVTKSFNRGEC",KD fold (SG1 = 1),[1],0.2
same,KD fold (SG1 = 1),[2],0.2
same,KD fold (SG1 = 1),[3],0.5
same,KD fold (SG1 = 1),[4],0.4
same,KD fold (SG1 = 1),[5],0.004
same,KD fold (SG1 = 1),[6],0.01
same,KD fold (SG1 = 1),[7],0.1
same,KD fold (SG1 = 1),[8],3.3
same,KD fold (SG1 = 1),[9],0.002
same,Kd,[10],2000 nM
same,Kd,[11],4300 nM
same,Kd,[12],3500 nM
same,Kd,[13],2000 nM
same,Kd,[14],550000 nM
"MS1032LO21-SG1 (antibody, human IgG1, kappa, V domains shown) VH: QVTLKESGPVLVKPTETLTLTCKVSGIDLSHDDISWVRQAPGKGLEWVSIISYAGSTYYASWAKGRLTISKDTSKNQVVLTMTNMDPVDTATYYCARGVPAYSHGGDLWGQGTLVTVSS VL: DIVMTQSPATLSLSPGERATLSCTTSQSVYHENWLSWFQQKPGQPPKLLIYWASTLAYGVPSRFSGSGSGTDFTLTISSLQPEDAATYYCAGGYGGGRYAFGQGTKVEIKR",Kd,Mouse latent myostatin,29.4 nM
"M103205H795-MY450/M103202L889-SK1 (antibody, human IgG1, kappa, name in EU numbering) heavy: QVTLKESGPVLVKPTETLTLTCTVSGIDLSHDDISWVRQAPGKGLEWVGIISYAGSTYYASWAKGRLTISKDTSKNQVVLTMTNMDPVDTATYYCARGVPAYSHGGDLWGQGTLVTVSSASTKGPSVFPLAPSSKSTSGGTAALGCLVKDYFPEPVTVSWNSGALTSGVHTFPAVLQSSGLYSLSSVVTVPSSSLGTQTYICNVNHKPSNTKVDKKVEPKSCDKTHTCPPCPAMELLTGPSVFLFPPKPKDTLMISRTPEVTCVVVDVSDEDPEVKFNWYVDGVEVHNAKTKPREEQYNSTYRVVSVLTVLHQDWLNGKEYKCKVSNKALPKPIEKTISKAKGQPREPQVYTLPPSREEMTKNQVSLTCLVKGFYPSDIAVEWESNGQPENNYKTTPPVLDSDGSFFLYSKLTVDKSRWQQGNVFSCSVMHEALHNHYTQKSLSLSP light: DIVMTQSPATLSLSPGERATLSCTSSQSVYHANWLSWFQQKPGQPPKLLIYWASTLAYGVPSRFSGSGSGTDFTLTISSLQPEDAATYYCAGGYGGGRYAFGQGTKVEIKRTVAAPSVFIFPPSDEQLKSGTASVVCLLNNFYPREAKVQWKVDNALQSGNSQESVTEQDSKDSTYSLSSTLTLSKADYEKHKVYACEVTHQGLSSPVTKSFNRGEC",KD fold (SG1 = 1),[15],5.3 fold
same,KD fold (SG1 = 1),[16],9.8 fold
same,KD fold (SG1 = 1),[17],0.2 fold
